Test system: disulfide cyclized peptide Mpa-Tyr-II-Pro-Mea

Question: thrombin was tested. Which “thrombin activity in screen at compound concentration of around 10 µM (fluorogenic substrate)” value did it give?
Answer: reduced the thrombin activity 52%

Source: patent US20240279845
